Reference: patent US20190351013

Target: HPV16 L2 minor capsid protein (UniProt P03107)
Sequence (P03107 whole entry): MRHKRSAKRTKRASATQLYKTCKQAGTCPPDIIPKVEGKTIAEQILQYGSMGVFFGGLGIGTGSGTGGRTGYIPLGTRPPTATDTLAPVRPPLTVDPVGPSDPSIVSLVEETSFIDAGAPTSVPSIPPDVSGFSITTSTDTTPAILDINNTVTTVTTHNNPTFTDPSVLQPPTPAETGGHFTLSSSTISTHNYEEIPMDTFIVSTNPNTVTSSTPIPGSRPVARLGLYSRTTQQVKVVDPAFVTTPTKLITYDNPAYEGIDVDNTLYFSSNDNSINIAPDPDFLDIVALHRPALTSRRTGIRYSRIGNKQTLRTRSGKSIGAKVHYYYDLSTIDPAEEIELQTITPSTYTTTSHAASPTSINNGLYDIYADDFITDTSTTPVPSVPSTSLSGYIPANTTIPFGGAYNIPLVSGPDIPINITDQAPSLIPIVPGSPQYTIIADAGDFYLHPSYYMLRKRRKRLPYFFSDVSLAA

recombinant His-furin
cleavage of HPV16 L2 by furin, immunoblot with anti-HPV16 polyclonal antibody: furin cleaves the L2 protein in the absence of polyR and FI
